Experimental data from PMC10289334 (PLOS ONE, 2023).

Experiments:
[1] = biological target: Francisella tularensis class II fructose-1,6-bisphosphatase (FtFBPaseII), wild type (Francisella tularensis); experiment: crystal structure
MtFBPaseII = biological target: T1, MtFBPaseII (Mycobacterium tuberculosis, UniProt P9WN21); format: binding
T1 construct: gene glpX; wild type; tetramer

FtFBPaseII = biological target: T2, FtFBPaseII (Francisella tularensis, UniProt Q5NEJ8); conditions: low (suboptimal) Mn2+; active site of chain C
T2 construct: gene gplX

crystal structure = biological target: the molecule itself; experiment: crystal structure

Francisella tularensis class II fructose-1,6-bisphosphatase (FtFBPaseII), wild type (enzyme)
stoichiometry N [1]: 4

O=P(O)(O)OC[C@H]1OC(O)(COP(=O)(O)O)[C@@H](O)[C@@H]1O (stereo partly shown) [F1,6BP]
X-ray crystal structure (Form C, 3.7 A) (MtFBPaseII): The final refined structure confirmed the presence of the F1,6BP substrate in both chains | X-ray crystal structure (Form E, 2.2 A) (FtFBPaseII): could be interpreted as what appeared to be a substrate molecule bound

B1: Mycobacterium tuberculosis class II fructose-1,6-bisphosphatase (MtFBPaseII), wild type (enzyme)
chain: MELVRVTEAGAMAAGRWVGRGDKEGGDGAAVDAMRELVNSVSMRGVVVIGEGEKDHAPMLYNGEEVGNGDGPECDFAVDPIDGTTLMSKGMTNAISVLAVADRGTMFDPSAVFYMNKIAVGPDAAHVLDITAPISENIRAVAKVKDLSVRDMTVCILDRPRHAQLIHDVRATGARIRLITDGDVAGAISACRPHSGTDLLAGIGGTPEGIIAAAAIRCMGGAIQAQLAPRDDAERRKALEAGYDLNQVLTTEDLVSGENVFFCATGVTDGDLLKGVRYYPGGCTTHSIVMRSKSGTVRMIEAYHRLSKLNEYSAIDFTGDSSAVYPLP
notes: also called Mt(Mg^2+)FBPaseII
stoichiometry N (crystal structure): 4
